# Test results reported in PMC11287265.
# Target: SHP2 N-terminal SH2 domain, T42A (human)
# Assay: fluorescence polarisation
substance,measurement,value
fluorescent phosphopeptide derived from pTyr1179 of insulin receptor substrate 1 (IRS-1),fold tighter binding against N-SH2 WT,5 fold
